According to patent publication US20230077100A1 (published 2023):

T1: HPV16 E6 peptide on HLA-A*02:01 (human)
T1 peptide: TIHDIILECV


Columns and labels:
[1] = molecular target: T1, HPV16 E6 peptide on HLA-A*02:01; assay: peptide titration on APCs, E:T 1:1, overnight, intracellular IFN-γ in CD8+ TCR-T cells; full-length, on cells
[2] = molecular target: T1, HPV16 E6 peptide on HLA-A*02:01; assay: peptide titration on APCs, E:T 1:1, overnight, intracellular IFN-γ in CD4+ TCR-T cells; full-length, on cells
[3] = molecular target: T1, HPV16 E6 peptide on HLA-A*02:01; assay: peptide titration on T2 cells, E:T 1:1, overnight, intracellular IFN-γ; full-length, on cells

Binder	EC50 of peptide [1]	EC50 of peptide [2]	EC50 of peptide [3]
E205 TCR (TCR, V domains shown) Valpha: TQLLEQSPQFLSIQEGENLTVYCNSSSVFSSLQWYRQEPGEGPVLLVTVVTGGEVKKLKRLTFQFGDARKDSSLHITAAQPGDTGLYLCAGVSARLMFGDGTQLVVKP Vbeta: SAVISQKPSRDICQRGTSLTIQCQVDSQVTMMFWYRQQPGQSLTLIATANQGSEATYESGFVIDKFPISRPNLTFSTLTVSNMSPEDSSIYLCSAVGGPKVPGAEAFFGQGTRLTVV	0.000917 µg/mL	0.0104 µg/mL	–
E202 TCR (TCR, V domains shown) Valpha: AQTVTQSQPEMSVQEAETVTLSCTYDTSESDYYLFWYKQPPSRQMILVIRQEAYKQQNATENRFSVNFQKAAKSFSLKISDSQLGDAAMYFCAYRDSRGSTLGRLYFGRGTQLTVWP Vbeta: DVKVTQSSRYLVKRTGEKVFLECVQDMDHENMFWYRQDPGLGLRLIYFSYDVKMKEKGDIPEGYSVSREKKERFSLILESASTNQTSMYLCASSLWGRKNTEAFFGQGTRLTVV	–	–	0.045 µg/mL
E203 TCR (TCR, V domains shown) Valpha: LAKTTQPISMDSYEGQEVNITCSHNNIATNDYITWYQQFPSQGPRFIIQGYKTKVTNEVASLFIPADRKSSTLSLPRVSLSDTAVYYCLALSMDSSYKLIFGSGTRLLVRP Vbeta: DAGVIQSPRHEVTEMGQEVTLRCKPISGHDYLFWYRQTMMRGLELLIYFNNNVPIDDSGMPEDRFSAKMPNASFSTLKIQPSEPRDSAVYFCASSLAQRSAPEAFFGQGTRLTVV	0.00104 µg/mL	0.0176 µg/mL	–
